# Laboratory results reported in US12059448B2, “Pharmaceutical composition comprising thrombolytic peptide-tetrahydroisoquinoline conjugate” (Lumosa Therapeutics Co., LTD, priority 2019, dated 2024).
# Experiment: Formulation stability in different pH solutions (Example 2), DC009 assay recovery by HPLC
# Type: physicochemical
# Method: DC009 were prepared according to the US Publication Application No. 2016-0083423. The final product was washed repetitively by DCM, THF and ethyl ether several times to increase the purity of the final product. The concentration and purity of DC009 in a solution are determined by HPLC with the following conditions. • Column: alkyl reversed-phase bounded phase column • Mobile Phase (MP): MP A: 0.1% by volume TFA in DI water/MP B: 0.1% by volume TFA in acetonitrile • Detection Wavelength: 214 & 280 nm • Column Temperature: 20-25° C. • Sample Temperature: 10-15° C. • Injection Volume: 10-20 μL • Gradient: MP A and MP B
# In Examples 2-6, the stability of each formulation is shown as “assay recovery” or “relative purity level”. Samples at each time point was analyzed by HPLC as described above. For “Assay Recovery”, the % number is calculated by dividing the DC009 concentration at the time point by the DC009 concentration at T=0. For “Relative purity level”, the % number is calculated by (Peak area % of DC009 at Tn/Peak area % of DC009 at T0)*100%. […]
# These formulations were stored at 40° C. and 60° C. to evaluate the assay recovery and total impurity. The appearance and stability at each storage condition were recorded at Table 2 and Table 3.
structure (smiles),measurement,setting,value
"C[C@H](NC(=O)[C@@H]1CCCN1)C(=O)N[C@@H](CCCCN)C(=O)NCCCC[C@H](NC(=O)[C@@H]1Cc2cc(O)c(O)cc2C(C)(C)N1)C(=O)O [DC009, 3S-6,7-dihydroxy-1,1-dimethyl-1,2,3,4-tetrahydro-isoquinoline-3-acyl-Lys(Pro-Ala-Lys)]",stability of DC009,acidic conditions,stable
same,stability of DC009,pH between 4 and 5,very stable
